Data as given in the RNAGym collection of RNA variant scans (doi:10.1073/pnas.2313332121).

B1: TPR t1 (parent)
chain: GACCAAUCUGCCCUCAGAGCUCGAGAACAUCUUCGGAUGCAGAGGAGGCAGGCUUCGGUGGCGCGAUAGCGCCAACGUCCUCAACCUCCAAUGCAUCCCACCACAUGAUGAUGCCUGAAGAGCCUUGGUUUUUUG

Variants of: B1
Experiment: polymerase ribozyme fitness, log enrichment relative to wild type (log ratio); higher = more active; in vitro selection for triplet polymerase activity
How it was run: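 Libraries of mutants in each subunit of a heterodimeric triplet polymerase ribozyme were generated by PCR and transcribed. In triplicate, each went through one in vitro selection round: annealing with biotinylated primer, partner subunit and triplets; frozen incubation at −7 °C; gel excision of extended constructs; streptavidin-bead capture; RT-PCR. Fitness, taken from Illumina sequencing of input and output libraries, is the logarithm of a genotype's enrichment over wild-type enrichment, averaged across replicates with inverse-variance weights. The logarithm is base 2, and genotypes needed ≥10 input reads and ≥1 read per output to be kept.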

Variant | polymerase ribozyme fitness (log ratio)
GACCAAUCCGCCCUCAGAGCUCGAGGUCAUCUUCGGAUGCAGAGGAGGCAGGCAUCGGUGGCGCGAUAGCGCCAACGUCCUGAACCUCCAAUGCAUCCCACCACAUGAUGAUGCCUGAAGAGCCUUGGUUUUUUG [U9C A26G A27U U54A C82G] | -5.13
GACCAAUCCGUCCUCAGAGCUCGAGAACAUCUUCGGAUGCAGAGGAGGCAGGCUUCGGUGGCGCGAUAGCGCCAACGUCCUCAACCUCCAAUGCAUCCCACCACAUGAUGAUGCCUGAAGAGCCUUGGUUUUUUG [U9C C11U] | 0.404
GACCAAUCCGCCCUCAGAGCUCGAGAACAUCUUCGGAUGCAGAGGUGGCAGGUUUCGGUGGCGCGAUAGCGCCAACGUCCUCACCCUUCAAUGCAUCCCACCACAUGAUGAUGCCUGAAGAGCCUUGGUUUUUUG [U9C A46U C53U A84C C88U] | -1.01
GACCAAUCAGCCCUCAGAGCUCGAGAACAUCUUCGGAUGCAGAGGAGGCAGGCUUCGGUGGCGCGAUAGCGCCAACGACCUCAACCUCCAAUCCAUCCCACCACAUGAUGAUGCCUGAAGAGCGUUGCUUUUUUG [U9A U78A G93C C124G G128C] | -2.15
GACCAAUCCGCCCUCAGAGCUCGAGAACAUCUUCGGAUGCAGAGGAGGCAGGCUUCGGUGGCGCGAUAGCGCCAACGUCCUCAACCUCCAAUGCAUCCCACCACAUGAUGAUGCCUGAAGAGCCUUGGUUUUUUG [U9C] | 0.614
GACCAAUCAGCCCUCAGAGCUCGAGAACAUCUUCGGAUGCAGAGGAGGCAGGCUUCGGUGGCGCGAUAGCGCCAACGUCCUCAACCUCCAAUGCAUCCCACCACAUGAUGAUGCCUGAAGAGCCUUUGUUUUUUG [U9A G127U] | 0.46
GACCAAUCCGUCCUCAGAGCUCGAGAACAUCUUCGGAUGCAGAGGAGGCAGGCUUCGGUCGCGCGAUAGCUCCAACGUCCUCAACCUCCAAUGCAUCCCACCACAUGAUGAUGCCUGAAGAGCCUUGGUUUUAUG [U9C C11U G60C G71U U133A] | -4.61
GACCAAUCCGCCCUCAGAGCUCGAGAACAUCUUCGGUUGCAGAGGAGGCAGGCUUCGGUGGCACGAUAGCGCCAACGUCUUGAAGCUCCAAUGCAUCCCACCACAUGAUGAUGCCUGAAGAGCCUUGGUUUUUUG [U9C A37U G63A C80U C82G C85G] | -2.21
GACCAAUCCGCCCUCAGAGCUCGAGAACAUCUUCGGAUGCAGAGGAGGCAGGCUUCGGUGGCGCGAUAGCGCCAACGUCCUCAACCUCCCAUGCAUCCCACCACAUGAUGAUGCCUGAAGAGCCUUGGUUUUUUG [U9C A90C] | -0.197
GACCAAUCCGCCCUCAGAGCUCGAGAACAUCUUCGGAUGCCGAGGAGGCAGGCUUCGGUGGCGCGAUAGCGCCAACGUCCUCAACCUCCAAUGCAUCCCACCACAUGAUGAUGCCUGUGGAGCCUUGGUUUUUUG [U9C A41C A118U A119G] | 0.0807
GACCAAUCAGCCCUCAGAGCUCGAGAACAUCUUCGGAUGCAGAGGAGGCAGGCUUCGGUGGCGCGAUAGCGCCAACGUCCUCAACCUCCAAUGCAACCCACCACAUGAUGAUGCCUGAAGAGCUUUGGUUUUUUG [U9A U96A C124U] | 1.28
GACCAAUCCGCACUCAGAGCUCGAGAACAUCUUCGGAUGCAGAGGAGGCAGGCUUCGGUGGCGCGAUAGCGCCAACGUCCUCAACCUCCAAUGCAUCCCACCACAUGAUGAUGCCUGAAGAGCCUUGGUUUUUUG [U9C C12A] | 0.347
GACCAAUCCGCCCUCAGAGCUCGAGAACAUCUUCGGAUGCAGGGGAGGCAGGCUUCGGUGACGCGAUAGCGCCAACGUCCUCAACCUCUAAUGCAUCCCACCACAUGAUGAUGCCUGAAGAGCCUUGGUUUUUUG [U9C A43G G61A C89U] | -1.55
GACCAAUCAGCCCUCAGAGCGCGAGAACAUCUUCGGAUGCUGAGAAGGCAGGCUUCGGUGGCGCGAUAGCGCCAACGUCCUCAACCUCCAAUGCAUCCCACCACAUGAUGAUGCCUGAAGAGCCUUGGUGUUUUG [U9A U21G A41U G45A U130G] | -4.18
GACCAAUCCGCCCUCAGAGCUCGAGACCAUCUUCGGAUGCAGAGGAGGCAGGCUUCGGUGGCGCGAUAGCGCCAACGUCCUCAACCUCCAAUGCAUCCCACCACAUGAUGAUGCCUGAAGAGCCUUGGUUUUUUG [U9C A27C] | -2.15
GACCAAUCAGCCCUCAGAGCUCGAGAACAUCUUCGGAAGCAGAGGAGGCAGGCAUCGGUGGCGCGAUAGCGCCAACGUCCUCAACCUCCAAUGCAACCCACCACAUGAUGAUGCCUGAAGAGCCUUGGUUUUGUG [U9A U38A U54A U96A U133G] | -1.53
GACCAAUCCGCCCUCAGAGCUCGAGAACAUCUUCGGCUGCAGAGGAGGCAGGCUUCGGUGGCGCGAUAGCGCCAACGUCCUCAACCUCCAAUGCAUCCCACCACAUGAUGAUGGCUUAAGAGCCUUGGUUUUUUG [U9C A37C C114G G117U] | -3.29
GACCAAUCCGGCCUCAGAGCUCGAGAACAUCUUCGUAUGCAGAGGAGGCAGGCUUCGGUGGCGCGAUAGCGCCAACGUCCUCAACCUCCAAUGCAUCCCACCACAUGAUGAUGCCAGAAGAGGCUUGGUUUUUUG [U9C C11G G36U U116A C123G] | -1.92
GACCAAUCCGCCCUCUGAGCUCGAGAACAUCUUCGGAUGCAGAGGAGGCAGGCUUCGGUGGCCCGAUAGCGCCAACGUCCUCAACCUCCAAUGCAUCCCACCACAUGAUGAUGCCUGAAGAGCCUUGGUUUUUUG [U9C A16U G63C] | 0.269
GACCAAUCCGCCCUCAGAGCUCGAGAUCAUCUUCGGAUGCAGAGGAGGCAGGCUUCGGUGGCGCGAUAGCGCAAACGUCCUCAACCUCCAAUGCAUCCAACCACAUGAUGAUGCCUGAAGAGCCUUGGUUUUUUG [U9C A27U C73A C99A] | -7.21
GACCAAUCAGCCCUCAGAGCUCGAGAACAUCUUCGGAUGCAGAGGAGGCAGGCUUCGGUGGCGCGAUAGCGCCAACGUCCUCAACCUCCAAUGCAUCCCACCACAUGAUGAUGCCCGAAGAGCCAUGGUUUUUUG [U9A U116C U125A] | 0.151
